Data: patent publication US6051217, “Therapeutic uses of interleukin-3 (IL-3) multiple mutation polypeptides” (G. D. Searle & Co., dated 2000)

T1: hIL-3 receptor (human, UniProt P26951)
T1 sequence: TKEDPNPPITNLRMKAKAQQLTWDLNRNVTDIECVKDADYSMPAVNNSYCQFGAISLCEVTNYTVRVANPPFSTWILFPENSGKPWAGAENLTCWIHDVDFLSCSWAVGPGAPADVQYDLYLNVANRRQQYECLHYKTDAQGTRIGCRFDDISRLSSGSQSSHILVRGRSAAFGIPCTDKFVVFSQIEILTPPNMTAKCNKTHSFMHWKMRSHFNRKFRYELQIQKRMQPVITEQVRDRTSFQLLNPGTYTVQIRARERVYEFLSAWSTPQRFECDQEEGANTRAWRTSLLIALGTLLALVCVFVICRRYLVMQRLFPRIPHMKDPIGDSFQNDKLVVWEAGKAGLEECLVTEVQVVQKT


Molecular target: T1, hIL-3 receptor
Assay: cell-based or functional assay

Binder | Relative Biological Activity (AML 193 proliferation)
pMON13330 polypeptide (ligand) MANCSNMIDEIITHLKQPPLPLLDFNNLNDEDMSILMDNNLRRPNLEAFNRAVKSLQNASAIESILKNLLPCLPLATAAPTRRPIIIRDGDWNEFRRKLTFYLWTLENAQAQQ | 19 EC50 (1-133)hIL-3 / EC50 mutant
pMON13326 polypeptide (ligand) MANCSNMIDEIITHLKQPPLPLLDFNNLNDEDMSILMDNNLRRPNLEAFNRAVKSLQNASAIESILKNLLPCLPLATAAPTRHPIHIKDGDWNEFRRKLTFYLWTLENAQAQQ | 25 EC50 (1-133)hIL-3 / EC50 mutant
pMON13286 polypeptide (ligand) MANCSNMIDEIITHLKQPPLPLLDFNNLNDEDMSILMENNLRRPNLEAFNRAVKSLQNASAIESILKNLLPCLPLATAAPTRHPIHIKDGDWNEFRRKLTFYLKTLENAQAQQ | 8 EC50 (1-133)hIL-3 / EC50 mutant
pMON13325 polypeptide (ligand) MANCSNMIDEIITHLKQPPLPLLDFNNLNDEDMSILMENNLRRPNLEAFNRAVKSLQNASAIESILKNLLPCLPLATAAPTRHPIHIKDGDWNEFRRKLTFYLWTLENAQAQQ | 8 EC50 (1-133)hIL-3 / EC50 mutant
pMON13298 polypeptide (ligand) MANCSNMIDEIITHLKQPPLPLLDFNNLNGEDQDILMENNLRRPNLEAFNRAVKSLQNASGIEAILRNLQPCLPSATAAPSRHPIIIKAGDWQEFREKLTFYLVTLEQAQEQQ | 3 EC50 (1-133)hIL-3 / EC50 mutant
pMON13299 polypeptide (ligand) MANCSNMIDEIITHLKQPPLPLLDFNNLNGEDQDILMENNLRRPNLEAFNRAVKSLQNASGIEAILRNLVPCLPSATAAPSRHPITIKAGDWQEFREKLTFYLVTLEQAQEQQ | 2 EC50 (1-133)hIL-3 / EC50 mutant
pMON13364 polypeptide (ligand) NCSIMIDEIIHHLKRPPNPLLDPNNLNSEDMDILMERNLRTPNLLAFVRAVKHLENASAIESILKNLLPCLPLATAAPTRHPIHIKDGDWNEFRRKLTFYLKTLENAQAQQ | 13 EC50 (1-133)hIL-3 / EC50 mutant
pMON13288 polypeptide (ligand) MANCSIMIDEIIHHLKRPPNPLLDPNNLNSEDMDILMERNLRTPNLLAFVRAVKHLENASGIEAILRNLQPCLPSATAAPSRHPIIIKAGDWQEFREKLTFYLVTLEQAQEQQ | 24 EC50 (1-133)hIL-3 / EC50 mutant
pMON13289 polypeptide (ligand) MANCSIMIDEIIHHLKVPPAPLLDSNNLNSEDMDILMERNLRLPNLLAFVRAVKNLENASGIEAILRNLQPCLPSATAAPSRHPIIIKAGDWQEFREKLTFYLVTLEQAQEQQ | 13 EC50 (1-133)hIL-3 / EC50 mutant
pMON13366 polypeptide (ligand) MANCSIMIDEIIHHLKRPPAPLLDPNNLNNEDVSILMDRNLRLPNLESFVRAVKNLENASGIEAILRNLQPCLPSATAAPSRHPIIIKAGDWQEFREKLTFYLVTLEQAQEQQ | 38 EC50 (1-133)hIL-3 / EC50 mutant
pMON13295 polypeptide (ligand) MANCSIMIDEIIHHLKVPPAPLLDSNNLNSEDMDILMERNLRLPNLLAFVRAVKNLENASGIEAILRNLVPCLPSATAAPSRHPITIKAGDWQEFREKLTFYLVSLEHAQEQQ | 3 EC50 (1-133)hIL-3 / EC50 mutant

Now from value to binder:

Relative Biological Activity (AML 193 proliferation) | Binder
3 EC50 (1-133)hIL-3 / EC50 mutant | pMON13294 polypeptide (ligand) MANCSIMIDEIIHHLKRPPNPLLDPNNLNSEDMDILMERNLRTPNLLAFVRAVKHLENASGIEAILRNLVPCLPSATAAPSRHPITIKAGDWQEFREKLTFYLVSLEHAQEQQ
32 EC50 (1-133)hIL-3 / EC50 mutant | pMON13285 polypeptide (ligand) MANCSNMIDEIITHLKQPPLPLLDFNNLNDEDMSILMDNNLRRPNLEAFNRAVKSLQNASAIESILKNLLPCLPLATAAPTRHPIHIKDGDWNEFRRKLTFYLKTLENAQAQQ
10 EC50 (1-133)hIL-3 / EC50 mutant | pMON13329 polypeptide (ligand) MANCSNMIDEIITHLKQPPLPLLDFNNLNDEDMSILMENNLRRPNLEAFNRAVKSLQNASAIESILKNLLPCLPLATAAPTRHPIIIRDGDWNEFRRKLTFYLWTLENAQAQQ
3 EC50 (1-133)hIL-3 / EC50 mutant | pMON13300 polypeptide (ligand) MANCSNMIDEIITHLKQPPLPLLDFNNLNGEDQDILMENNLRRPNLEAFNRAVKSLQNASGIEAILRNLVPCLPSATAAPSRHPITIKAGDWQEFREKLTFYLVSLEHAQEQQ
2 EC50 (1-133)hIL-3 / EC50 mutant | pMON13301 polypeptide (ligand) MANCSIMIDEIIHHLKRPPAPLLDPNNLNAEDVDILMERNLRLPNLESFVRAVKNLENASAIESILKNLLPCLPLATAAPTRHPIHIKDGDWNEFRRKLTFYLKTLENAQAQQ
0.6 EC50 (1-133)hIL-3 / EC50 mutant | pMON13303 polypeptide (ligand) MANCSIMIDEIIHHLKVPPAPLLDSNNLNSEDMDILMERNLRLPNLLAFVRAVKNLENASAIESILKNLLPCLPLATAAPTRHPIHIKDGDWNEFRRKLTFYLKTLENAQAQQ
1.2 EC50 (1-133)hIL-3 / EC50 mutant | pMON13302 polypeptide (ligand) MANCSIMIDEIIHHLKRPPNPLLDPNNLNSEDMDILMERNLRTPNLLAFVRAVKHLENASAIESILKNLLPCLPLATAAPTRHPIHIKDGDWNEFRRKLTFYLKTLENAQAQQ
26 EC50 (1-133)hIL-3 / EC50 mutant | pMON13287 polypeptide (ligand) MANCSIMIDEIIHHLKRPPAPLLDPNNLNAEDVDILMERNLRLPNLESFVRAVKNLENASGIEAILRNLQPCLPSATAAPSRHPIIIKAGDWQEFREKLTFYLVTLEQAQEQQ
8 EC50 (1-133)hIL-3 / EC50 mutant | pMON13313 polypeptide (ligand) MANCSIMIDEIIHHLKRPPAPLLDPNNLNAEDVDILMERNLRLPNLESFVRAVKNLENASGIEAILRNLVPCLPSATAAPSRHPITIKAGDWQEFREKLTFYLVSLEHAQEQQ
20 EC50 (1-133)hIL-3 / EC50 mutant | pMON13290 polypeptide (ligand) MANCSIMIDEIIHHLKRPPAPLLDPNNLNAEDVDILMERNLRLPNLESFVRAVKNLENASGIEAILRNLVPCLPSATAAPSRHPITIKAGDWQEFREKLTFYLVTLEQAQEQQ
4 EC50 (1-133)hIL-3 / EC50 mutant | pMON13312 polypeptide (ligand) MANCSIMIDEIIHHLKRPPNPLLDPNNLNSEDMDILMERNLRTPNLLAFVRAVKHLENASGIEAILRNLVPCLPSATAAPSRHPITIKAGDWQEFREKLTFYLVTLEQAQEQQ
7 EC50 (1-133)hIL-3 / EC50 mutant | pMON13475 polypeptide (ligand) MANCSIMIDEAIHHLKRPPAPLLDPNNLNDEDVSILMDRNLRLPNLESFVRAVKNLENASGIEAILRNLQPCLPSATAAPSRHPIIIKAGDWQEFREKLTFYLVTLEQAQEQQ
6 EC50 (1-133)hIL-3 / EC50 mutant | pMON13292 polypeptide (ligand) MANCSIMIDEIIHHLKVPPAPLLDSNNLNSEDMDILMERNLRLPNLLAFVRAVKNLENASGIEAILRNLVPCLPSATAAPSRHPITIKAGDWQEFREKLTFYLVTLEQAQEQQ
